Reference: publication PMC5313200

biological target: mitochondrial antiviral signaling protein (MAVS), from pCMV-FLAG-MAVS (UniProt Q8VCF0); experiment: co-immunoprecipitation with quantitative western blot; details: 293T cells co-transfected with MAVS and viperin mutant; at least 3 independent experiments; parent: est. 100; read off a plot

Substance	percent of parent
viperin (Virus Inhibitory Protein, Endoplasmic Reticulum-associated, interferon-inducible), wild type, from pcDNA3.1-viperin (from UniProt Q8CBB9) F90A	160 % WT
viperin (Virus Inhibitory Protein, Endoplasmic Reticulum-associated, interferon-inducible), wild type, from pcDNA3.1-viperin (from UniProt Q8CBB9) H79A	140 % WT
viperin (Virus Inhibitory Protein, Endoplasmic Reticulum-associated, interferon-inducible), wild type, from pcDNA3.1-viperin (from UniProt Q8CBB9) H93A	90 % WT
viperin (Virus Inhibitory Protein, Endoplasmic Reticulum-associated, interferon-inducible), wild type, from pcDNA3.1-viperin (from UniProt Q8CBB9) T81A	240 % WT
viperin (Virus Inhibitory Protein, Endoplasmic Reticulum-associated, interferon-inducible), wild type, from pcDNA3.1-viperin (from UniProt Q8CBB9) N77A	83 % WT
viperin (Virus Inhibitory Protein, Endoplasmic Reticulum-associated, interferon-inducible), wild type, from pcDNA3.1-viperin (from UniProt Q8CBB9) G117A	20 % WT
viperin (Virus Inhibitory Protein, Endoplasmic Reticulum-associated, interferon-inducible), wild type, from pcDNA3.1-viperin (from UniProt Q8CBB9) R82A	66 % WT
viperin (Virus Inhibitory Protein, Endoplasmic Reticulum-associated, interferon-inducible), wild type, from pcDNA3.1-viperin (from UniProt Q8CBB9) Y86A	120 % WT
viperin (Virus Inhibitory Protein, Endoplasmic Reticulum-associated, interferon-inducible), wild type, from pcDNA3.1-viperin (from UniProt Q8CBB9) C84A	93 % WT
viperin (Virus Inhibitory Protein, Endoplasmic Reticulum-associated, interferon-inducible), wild type, from pcDNA3.1-viperin (from UniProt Q8CBB9) K96A	81 % WT
viperin (Virus Inhibitory Protein, Endoplasmic Reticulum-associated, interferon-inducible), wild type, from pcDNA3.1-viperin (from UniProt Q8CBB9) N85A	100 % WT
viperin (Virus Inhibitory Protein, Endoplasmic Reticulum-associated, interferon-inducible), wild type, from pcDNA3.1-viperin (from UniProt Q8CBB9) S75A	57 % WT
viperin (Virus Inhibitory Protein, Endoplasmic Reticulum-associated, interferon-inducible), wild type, from pcDNA3.1-viperin (from UniProt Q8CBB9) K120A	12 % WT
viperin (Virus Inhibitory Protein, Endoplasmic Reticulum-associated, interferon-inducible), wild type, from pcDNA3.1-viperin (from UniProt Q8CBB9) T97A	45 % WT
viperin (Virus Inhibitory Protein, Endoplasmic Reticulum-associated, interferon-inducible), wild type, from pcDNA3.1-viperin (from UniProt Q8CBB9) P73A	220 % WT
viperin (Virus Inhibitory Protein, Endoplasmic Reticulum-associated, interferon-inducible), wild type, from pcDNA3.1-viperin (from UniProt Q8CBB9) T94A	30 % WT
